Assay results as given in patent US12018084B2, “Anti-CXCR2 antibodies and uses thereof” (Cephalon LLC, priority 2018, dated 2024).
Residue numbers refer to the chain shown, from its start.

Columns and labels:
Human CXCR2 [1] = biological target: T1, Human CXCR2 (Homo sapiens, UniProt P25025); test: Flow cytometry binding assay, Expi293F cells transiently transfected with human CXCR2; design: host or cells: Expi293F cells, vector pTT5; conditions: combinatorial variants with light chain c
T1 sequence (P25025 1-360): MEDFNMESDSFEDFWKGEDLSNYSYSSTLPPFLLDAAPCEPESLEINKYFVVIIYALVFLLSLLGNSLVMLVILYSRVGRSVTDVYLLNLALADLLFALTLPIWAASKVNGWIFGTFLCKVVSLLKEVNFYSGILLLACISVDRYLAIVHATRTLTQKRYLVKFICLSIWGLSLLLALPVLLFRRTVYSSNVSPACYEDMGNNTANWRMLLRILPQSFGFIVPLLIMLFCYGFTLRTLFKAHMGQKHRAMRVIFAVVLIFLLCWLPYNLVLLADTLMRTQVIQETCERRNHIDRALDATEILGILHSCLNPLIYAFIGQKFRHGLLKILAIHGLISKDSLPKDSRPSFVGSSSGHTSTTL
Experimental: For each 10 mL transfection, lipid-DNA complexes were prepared by diluting 10 μg of plasmid DNA in Opti-MEM™ I Reduced Serum Medium (Cat. no. 31985-062) to a total volume of 1.0 mL. 54 μL of ExpiFectamine™ 293 Reagent was diluted in Opti-MEM™ I medium to a total volume of 1.0 mL. Transfections were carried out according to manufacturer's instructions. The cells were incubated in a 37° C. incubator with a humidified atmosphere of 8% CO2 in air on an orbital shaker rotating at 200 rpm. Approximately 18-24 hours post-transfection, the cell viability was evaluated and transfected cells harvested for use.
Harvested cells were resuspended in FACS buffer (1×PBS+0.5% (w/v) bovine serum albumin (BSA)+2 mM EDTA pH 7.2). Approximately 2×10^5 cells were added per well in a 96-well round-bottomed plate. Cells were pelleted by centrifugation at 400 g for 5 mins at 4° C. and supernatants discarded. 25 μL of each test antibody or control antibody was added to the cells and incubated for 30 minutes at 4° C. Cells were washed twice in 100 μL FACS buffer followed by centrifugation at 400 g for 5 mins at 4° C.
For detection, 50 μL of secondary antibody (Table 2) was added to relevant samples. Commercially available antibodies that bound to transfected CXCR family members were used as positive controls to ensure that the cells were expressing the receptors. Cells were washed twice in 200 μL of FACS buffer followed by centrifugation at 400 g for 5 mins at 4° C. Before sample acquisition, cells were resuspended in 100 μL of FACS buffer. Samples were acquired using the high throughput sampler on a FACSCanto™ II cytometer (Beckton-Dickinson).
Binding of BKO-4A8 and variants thereof was detected by incubation of fluorochrome-conjugate anti-human IgG light chain lambda antibody. The binding activity of antibodies tested, quantified as mean fluorescent intensity, was independent of the antibody Fc region as illustrated in FIG. 9.

Human CXCR2 [2] = biological target: T1, Human CXCR2; test: Calcium flux assay, HTS002C-CHEMISCREEN human CXCR2 calcium-optimized cell line; assay type: cell-based; conditions: human agonist potency
Experimental: One of the signaling pathways downstream of CXCR2 activation that has a role in cell chemotaxis is characterized by calcium mobilization (flux). The ability of BKO-4A8-101c to inhibit human CXCR2 ligand-induced calcium flux was tested in the commercially available HTS002C-CHEMISCREEN™ human CXCR2 chemokine receptor calcium-optimized cell line.
The Fluo-4 NW calcium assay kit (Life Technologies) was used according to manufacturer's protocol for in-cell measurement of calcium mobilization, which was read using a FLIPR Tetra high-throughput cellular screening system (Molecular Devices). The peak response minus the basal response from each well was used to determine inhibition dose response curves fitting a four-parameter logistic equation and IC50 values.

Human CXCR2 [3] = biological target: T1, Human CXCR2; test: Tango CXCR2-bla U2OS cell-based β-arrestin recruitment assay; design: The beta-arrestin/TEV protease fusion and the beta-lactamase reporter are separate parts of the cell line; conditions: human agonist potency
Text: Cells were thawed, propagated, cultured and frozen according to the manufacturer's directions.
Preparation of Tango™ CXCR2-bla U2OS cells for use in cell-based assays: The manufacturer's protocol was altered to make use of 96-well plates instead of 384-well plates. Briefly, dividing cells were harvested one day prior to use. Cells were harvested and resuspended in assay medium (100% FreeStyle™ Expression Medium; Life Technologies; Cat #12338-018) at a viable cell density of 312,500 cells/mL. 128 μL of cell suspension was added per well in 96-well black-walled, clear bottom tissue culture-treated plates. Cells were incubated for 16-20 hrs at 37° C. in an atmosphere of 5% CO2 prior to use in assays.
Tango™ assay procedure: Assays were set up and run as described in the manufacturer's protocol. For antagonist assays, agonists were used at concentrations in the EC50-EC80 range. Assays were read using a FlexStation® 3 (Molecular Devices) fluorescence plate reader configured with the parameters given in Table 4. The blue/green emission ratio for each well was calculated by dividing the blue emission values by the green emission values. All inhibition curves were fitted using a four-parameter dose-response using GraphPad Prism™ (Version 7.01).
The Human CXCR2 Tango™ cell line was used to assess the ability of antibody BKO-4A8-101c to inhibit β-arrestin recruitment to agonist-activated CXCR2. All human ELR+ chemokine CXCR2 ligands were tested in antagonist dose response assays using calculated EC50 values of agonist.
The commercially available reporter cell line Tango™ CXCR2-bla U2OS (ThermoFisher Scientific) was used to assess the ability of the anti-CXCR2 antibodies to inhibit β-arrestin recruitment to agonist-activated CXCR2. Agonists were provided at their assay EC50 concentration for antagonist assays.

Murine CXCR2 = biological target: T2, Murine CXCR2 (Mus musculus, UniProt P35343); test: cELISA of hybridoma supernatants on cells transfected with murine CXCR2; assay type: binding; conditions: hybridoma supernatant; fluorescence units relative to positive control (100%)
T2 construct: expressed in transfected cells
T2 sequence (P35343 1-359): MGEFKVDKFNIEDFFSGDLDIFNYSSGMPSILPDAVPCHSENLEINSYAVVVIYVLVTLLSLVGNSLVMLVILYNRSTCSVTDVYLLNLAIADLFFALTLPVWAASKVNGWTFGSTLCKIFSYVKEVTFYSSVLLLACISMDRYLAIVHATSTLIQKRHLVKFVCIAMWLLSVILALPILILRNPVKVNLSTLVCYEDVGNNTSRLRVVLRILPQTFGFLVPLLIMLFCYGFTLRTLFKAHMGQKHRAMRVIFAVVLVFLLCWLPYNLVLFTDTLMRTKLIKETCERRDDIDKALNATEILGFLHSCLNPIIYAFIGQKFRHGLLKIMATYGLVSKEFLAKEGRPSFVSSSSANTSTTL

Human CXCR2 [4] = biological target: T1, Human CXCR2; test: cELISA of hybridoma supernatants on cells transfected with human CXCR2; assay type: binding; design: host or cells: Expi293F cells, vector pTT5; conditions: hybridoma supernatant; fluorescence units relative to positive control (100%)
Experimental: To generate hybridomas which produced monoclonal antibodies to human CXCR2, splenocytes and/or lymph node cells from animals with the highest anti-CXCR2 titres were isolated and fused to mouse myeloma cells (ATCC, CRL-1580). Cells were plated at approximately 1×10^5 cells/mL in flat bottom microtiter plates, followed by a two week incubation in selective medium (10% FCS and 1×HAT (Sigma)). Hybridomas were expanded by serial passage through four media changes in 96-well plates (96-well stages 1 to 4), then, where required, expanded into T25 and T75 flasks. […] Bound antibodies were detected using a goat anti-rat IgG-HRP (Southern Biotech, #3030-05) secondary antibody.
A panel of hybridomas was generated using lymph nodes and spleen cells from the transgenic rats engineered to express human variable region sequences. A cellular ELISA (cELISA) was used to detect human CXCR2 binding activity in supernatants taken during the expansion process for the hybridomas (Table 5). Hybridomas that retained expression of antibodies that bound CXCR2 after several passages were selected for DNA sequencing.

B1: 102c: VH SEQ ID NO: 162, VL SEQ ID NO: 110 (antibody, V domains shown)
VH: EVQLLESGGGLVQPGGSLRLSCAASGFTFSSSTQSWVRQPPGKGLEWVSAISGRGRSTYYADSVKGRFTISRDNSKNTLYLQMNSLRAEDTAVYYCAIQEGYWGQGILVTVSS
VL: QSALTQPPSASGSPGQSVTISCIGTSSDVGGYNYVSWYQQHPGKAPKLMIYEVSKRPSGVPDRFSGSKSGNTASLTVSGLQAEDEADYYCSSYAGSNNFGVFGGGTKLTVL
modifications: 4A8 VH Variant 102 M34Q_A40P_N56S_R75K_M96E; 4A8 VL variant c D41G_N52S_N94S
CXCR2 binding activity versus parental BKO-4A8 (Human CXCR2 [1]): reduced

B2: 106c: VH SEQ ID NO: 166, VL SEQ ID NO: 110 (antibody, V domains shown)
VH: B1 VH with R54S, R56G
VL: B1 VL
modifications: 4A8 VH Variant 106 M34Q_A40P_R53S_R55G_N56S_ R75K_M96E; 4A8 VL variant c D41G_N52S_N94S
CXCR2 binding activity versus parental BKO-4A8 (Human CXCR2 [1]): reduced

B3: CXCL7: human agonist chemokine, R&D Systems 393-NP (protein)
chain: AELRCMCIKTTSGIHPKNIQSLEVIGKGTHCNQVEVIATLKDGRKICLDPDAPRIKKIVQKKLAGDESAD
EC50 (Human CXCR2 [2]): 7.14 nM | EC50 (Human CXCR2 [3]): 39.6 nM

B4: BKO-5E8: VH SEQ ID NO: 21, VL SEQ ID NO: 22 (antibody, V domains shown)
VH: EVQLLESGGGLVQPGGSLRLSCAASGFTFSSYAMSWVRQAPGRGLEWVSAIRGSGAGTYYADSMKGRFTISRDNSKDTLYLLMNSLRAEDTAVYYCSKLEAVSGTGKYFQHWGQGTLVTVSS
VL: SYELTQPPSVSVSPGQTANITCSGDTLGDKFACWYQQKPGQSPVLVIYQDTKRPSGIPERFSGSKSGITATLTISGTQAMDEADFYCQAWNSRGVVFGGGTRLTVL
modifications: BKO_5E8_H5_C05_VH; BKO_5E8_L3_C03_VL
Murine CXCR2 % Positive (Murine CXCR2): 8% | Human CXCR2 % Positive (Human CXCR2 [4]): 109%

B5: BKO-5G11: VH SEQ ID NO: 23, VL SEQ ID NO: 24 (antibody, V domains shown)
VH: EVQLLESGGGLVQPGGSLRLSCAVSGFTFSNYAMTWVRQAPGKGLEWVSAISGRGSRTYYADSVKGRFTISRDTSKNTLYLQMNSLRAEDTAVYYCAKMDYWGQGTLVTVSS
VL: B1 VL with I23T, Y51F
modifications: BKO_5G11_VH; BKO_5G11_VL
Murine CXCR2 % Positive (Murine CXCR2): 22% | Human CXCR2 % Positive (Human CXCR2 [4]): 101%

B6: BKO-7C11: VH SEQ ID NO: 31, VL SEQ ID NO: 32 (antibody, V domains shown)
VH: QVQLQQWGAGLLKPSETLSLTCAVYGGSFSGYYWSWIRQPPGKGLEWIGEINHSRNTNYNPSLKSRVTISVDTSKNQFSLKLSSVTAADTAVYYCARGEVRGVFTLYWYFDVWGRGTLVTVSS
VL: SSELTQGPAVSVALGQTVRITCQGNSLRFYYASWYQQRPGQAPILVIYDKNNRPSGIPDRFSGSSSGNTASLTITGAQAEDEADYYCNSRDSSGYYMIFGGGTKLTVL
modifications: BKO_7C11_H6_B06_VH; BKO_7C11_G01_VL
Murine CXCR2 % Positive (Murine CXCR2): 4% | Human CXCR2 % Positive (Human CXCR2 [4]): 73%

B7: BKO-8B6: VH SEQ ID NO: 37, VL SEQ ID NO: 38 (antibody, V domains shown)
VH: EVQLLESGGGLVQPGGSLRLSCAASGFTFSSNAMSWVRQAPGKGLEWVSAISNSGRSTYYADSVKGRFTISRDSSKNTLYLLMNSLRAEDSAVYYCAIKLGYWGQGSLVTVSS
VL: B1 VL with I23T, I50M, N97D, K107R
modifications: BKO_8B6_VH; BKO_8B6_VL
Murine CXCR2 % Positive (Murine CXCR2): 6% | Human CXCR2 % Positive (Human CXCR2 [4]): 95%

B8: BKO-8C4: VH SEQ ID NO: 39, VL SEQ ID NO: 40 (antibody, V domains shown)
VH: QLQLQESGPGLVKPSETLSLTCTVSGGSIRTSSYYWGWIRQPPGKGLEYIGSIYYSGTTYYNPSLKSRVTMSVDTSKNQFSLKLSSVTAADTAVYYCARHGRVREVPPFDYWGQGTLVTVSS
VL: SSELTQDPAVSVALGQTVRITCQGDSLRYYYASWYQQKPGQAPVLVIYDENSRPSGIPDRFSGSSSGNTASLRITGTQAEDEADYYCNSRDTSGNHWAFGGGTKLTVL
modifications: BKO_8C4_VH; BKO_8C4_VL
Murine CXCR2 % Positive (Murine CXCR2): 6% | Human CXCR2 % Positive (Human CXCR2 [4]): 124%

B9: BKO-1A1: VH SEQ ID NO: 1, VL SEQ ID NO: 2 (antibody, V domains shown)
VH: B8 VH with L84M, T92S
VL: B8 VL with R73S
modifications: BKO_1A1_VH; BKO_1A1_VL
Murine CXCR2 % Positive (Murine CXCR2): 6% | Human CXCR2 % Positive (Human CXCR2 [4]): 38%
